{"source": "paper PMC9504416", "about": "“Functional Characterization of an Arabidopsis Profilin Protein as a Molecular Chaperone under Heat Shock Stress” (Molecules, 2022)", "molecular_target": "the molecule itself", "assay": "native gel or EMSA; 10% native PAGE with silver staining; concentration-dependent aliquots of recombinant protein, incubated at 25 °C for 30 min and centrifuged at 13,000 x g for 15 min", "data": [{"protein": "Arabidopsis thaliana profilin-2 (AtPFN2), recombinant (natural protein, UniProt Q42418 1-131, looked up, Profilin-2 (AtPFN2) of Arabidopsis thaliana, amplified by PCR from an A. thaliana cDNA library; single band of 14 kDa on SDS-PAGE; Homo-oligomer of various sizes; The vector pET28(a) probably adds the His tag; no removal of the tag is told; also called Arabidopsis PFN2; source: E. coli BL21 (DE3), pET28(a), purified (HisPur cobalt resin, imidazole elution; SEC)) MSWQSYVDDHLMCEVEGNHLTHAAIFGQDGSVWAQSSAFPQLKPAEIAGINKDFEEAGHLAPTGLFLGGEKYMVVQGEAGAVIRGKKGPGGVTIKKTTQALVFGIYDEPMTGGQCNLVVERLGDYLIESGL", "values": [{"measurement": "binding result", "value": "binds"}]}]}
